Source: patent publication US20090130652A1 (CRUCELL HOLLAND B V, published 2009)

B1: CR4354L4261 (antibody, human IgG1, lambda, V domains shown)
VH: QVQLVQSGAEVRKPGASVKVSCKASGYTFTHYYMHWVRQAPGQGLEWMGIINPSGGSTTYAQKLQGRVTMTRDTSTSTVYMELSSLRSEDTAVYYCARDWGSNYVWGSYPKYWGQGTLVTVSS
VL: TQAVLTQPSSASGTPGQRVTISCSGSSPNIGSNNVNWYQQLPGTAPKLLIYSNNQRPSGVPGRFSGSKSGTSASLAISGLQSEDEADYYCAAWDDGLSGNYVFGAGTQLTVLS
B2: CR4354L4335 (antibody, human IgG1, lambda, V domains shown)
VH: B1 VH
VL: TQSVLTQPPSTSGTPGQRVTISCSGSDSNIGSNTVNWYQQLPGMAPKLLIYRNNQRPSGVPDRFSGSKSGTSASLAISGLQSEDEADYFCASWDANLGGPLFGGGTKVTVLG
B3: CR4354L4328 (antibody, human IgG1, lambda, V domains shown)
VH: B1 VH
VL: TQAVLTQPSSVSGTPGQRVTISCSGSSSNIGSNTVNWYQQLPGTAPKLLIYGNNNRPSGVPARFSGSRSGTSASLAISGLRSEDEADYYCAAWDDSLNGPVFGGGTKLTVLG

Each binder was assayed against WNV strain 385-99 (infectious, as used in the virus neutralization assay) (assay: cell-based or functional assay).

Row | Binder | Potency (%) in 66% neutralization concentration, VNA [%]
1 | B1 | 106
2 | B2 | 60
3 | B3 | 286
